Measured values published in article PMC5408928.

Molecular target: yeast 80S ribosome (S. cerevisiae)
Assay: crystal structure

Row | Substance | eIF5A-occupancy refinement (%)
1 | unmodified eIF5A from S. cerevisiae (from UniProt P23301 1-157) (natural protein) | 88
2 | hypusinated eIF5A from Saccharomyces cerevisiae (from UniProt P23301 1-157) (natural protein) | 97
